Measurements reported in publication PMC9056527, “Aptamer loaded superparamagnetic beads for selective capturing and gentle release of activated protein C”.

Legend:
human α-thrombin (human) = human α-thrombin (human) (UniProt P00734)
[1] = molecular target: T1, activated protein C (APC) (UniProt P04070;P04070 43-197;212-461); assay: BLI; dissociation in binding buffer (Ca2+); 500 nM APC; Binding buffer with Ca2+ (composition not in material); elution buffer 10 mM Tris-HCl, 144 mM NaCl, pH 7.4, 5 mM EDTA; bead capture at RT, 30 min; conditions: protein: commercial; copies: 1;1; label: 3'-TEG-biotin
[2] = molecular target: protein C (PC, zymogen, Ceprotin) (UniProt P04070;P04070 43-197;200-461); assay: pull-down (aptamer-loaded magnetic beads); PC activation mixture; PC in eluate below <0.2-0.24 µg/ml; Binding buffer with Ca2+ (composition not in material); elution buffer 10 mM Tris-HCl, 144 mM NaCl, pH 7.4, 5 mM EDTA; bead capture at RT, 30 min; conditions: protein: commercial; copies: 1;1
[3] = molecular target: T1, activated protein C (APC); assay: pull-down (aptamer-loaded magnetic beads); Ca2+ binding buffer; eluted with 5 mM EDTA; Binding buffer with Ca2+ (composition not in material); elution buffer 10 mM Tris-HCl, 144 mM NaCl, pH 7.4, 5 mM EDTA; bead capture at RT, 30 min; conditions: protein: commercial; copies: 1;1
[4] = molecular target: T1, activated protein C (APC); assay: pull-down (aptamer-loaded magnetic beads); Ca2+ binding buffer; 10 µg APC; Binding buffer with Ca2+ (composition not in material); elution buffer 10 mM Tris-HCl, 144 mM NaCl, pH 7.4, 5 mM EDTA; bead capture at RT, 30 min; conditions: protein: commercial; copies: 1;1

T1 sequence (P04070 43-197, chain 1 of 2): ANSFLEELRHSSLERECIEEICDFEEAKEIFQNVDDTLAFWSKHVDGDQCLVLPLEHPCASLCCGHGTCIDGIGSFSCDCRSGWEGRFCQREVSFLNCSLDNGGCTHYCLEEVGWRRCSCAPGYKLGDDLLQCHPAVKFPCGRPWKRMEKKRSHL
T1 sequence (P04070 212-461, chain 2 of 2): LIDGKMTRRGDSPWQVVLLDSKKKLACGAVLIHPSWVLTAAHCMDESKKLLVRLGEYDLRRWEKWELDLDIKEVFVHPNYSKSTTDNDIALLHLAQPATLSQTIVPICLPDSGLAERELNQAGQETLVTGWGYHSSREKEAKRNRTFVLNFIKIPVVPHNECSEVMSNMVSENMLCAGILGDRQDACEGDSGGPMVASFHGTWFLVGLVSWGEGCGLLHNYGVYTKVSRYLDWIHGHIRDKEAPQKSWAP
Chain of protein C (PC, zymogen, Ceprotin) (P04070 43-197, chain 1 of 2): as the sequence (P04070 43-197, chain 1 of 2) above
Chain of protein C (PC, zymogen, Ceprotin) (P04070 200-461, chain 2 of 2): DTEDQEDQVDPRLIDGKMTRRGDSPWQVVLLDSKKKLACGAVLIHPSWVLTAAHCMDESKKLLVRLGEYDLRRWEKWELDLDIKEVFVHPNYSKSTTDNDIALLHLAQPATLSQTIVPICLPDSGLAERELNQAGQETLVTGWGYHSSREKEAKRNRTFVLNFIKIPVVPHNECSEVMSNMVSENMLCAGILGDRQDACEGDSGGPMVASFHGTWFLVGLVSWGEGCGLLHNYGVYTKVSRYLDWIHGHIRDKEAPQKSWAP

## recombinant hirudin (Refludan, Bayer Health Care) (natural protein)
Human α-thrombin (human)
  IC50 of hirudin for thrombin-catalysed hydrolysis of the fluorogenic substrate Boc-Asp(OBzl)-Pro-Arg-AMC; 2.5 µg/ml (68 nM) thrombin, hirudin 14 nM to 14 µM, 30 min in activation buffer: 170 nM
  IC50 of hirudin for thrombin-catalysed hydrolysis of the fluorogenic substrate Boc-Asp(OBzl)-Pro-Arg-AMC; 12.5 µg/ml (341 nM) thrombin, hirudin 14 nM to 14 µM, 30 min in activation buffer: 1960 nM
  IC50 of hirudin for thrombin-catalysed hydrolysis of the fluorogenic substrate Boc-Asp(OBzl)-Pro-Arg-AMC; 20 µg/ml (545 nM) thrombin, hirudin 14 nM to 14 µM, 30 min in activation buffer: 2260 nM

B1: HS02-52G (ssDNA)
DNA: GCCTCCTAACTGAGCTGTACTCGACTTATCCCGGATGGGGCTCTTAGGAGGC
[1]
  binding result: binds

B2: HS02-52G-NH2 (ssDNA)
DNA: GCCTCCTAACTGAGCTGTACTCGACTTATCCCGGATGGGGCTCTTAGGAGGC
modifications: 3'-HEG-amino
[2]
  binding result: no binding
[3]
  binding result: binds

B3: AD02-52 (antisense control) (ssDNA)
DNA: GCCTCCTAAGAGCCCCATCCGGGATAAGTCGAGTACAGCTCAGTTAGGAGGC
modifications: 3'-HEG-amino
[4]
  binding result: no binding
